Experimental findings from paper PMC3170326, “AKAP12 and AKAP5 form higher-order hetero-oligomers” (Journal of Molecular Signaling, 2011) are described below.

Experiment [1] deals with His-tagged AKAP12 (purified, used for steric-exclusion chromatography) (human) (UniProt Q02952). The experiment in a line: SEC; purified His-tagged AKAP5 or AKAP12 alone on HiPrep Sephacryl S-400 HR 16/60, PBS with 0.01% NaN3; fractions analysed by SDS-PAGE and immunoblot; homo-oligomer size from elution position. A general note: SEC sorts molecules by how far they enter the pores of the column.

Experiment [2] concerns the target T1, HA-tagged full-length AKAP5 (human, UniProt P24588 1-427).
T1 construct: AKAP5 (AKAP79), human, full length; pCMV-HA vector; also called HA-AKAP5; source: A431 cells, transiently transfected, in lysate
The experiment in a line: co-IP; anti-HA immunoprecipitation from whole-cell lysates of A431 cells co-expressing an HA-tagged and a GFP-tagged AKAP; cells untreated, treated with 10 uM isoproterenol for 10-30 min, or washed free of agonist for 2 h; immunoblot. To be noted: partners not purified. Background: In western blotting, separated proteins are transferred to a membrane and probed.

T1 sequence (P24588 whole entry): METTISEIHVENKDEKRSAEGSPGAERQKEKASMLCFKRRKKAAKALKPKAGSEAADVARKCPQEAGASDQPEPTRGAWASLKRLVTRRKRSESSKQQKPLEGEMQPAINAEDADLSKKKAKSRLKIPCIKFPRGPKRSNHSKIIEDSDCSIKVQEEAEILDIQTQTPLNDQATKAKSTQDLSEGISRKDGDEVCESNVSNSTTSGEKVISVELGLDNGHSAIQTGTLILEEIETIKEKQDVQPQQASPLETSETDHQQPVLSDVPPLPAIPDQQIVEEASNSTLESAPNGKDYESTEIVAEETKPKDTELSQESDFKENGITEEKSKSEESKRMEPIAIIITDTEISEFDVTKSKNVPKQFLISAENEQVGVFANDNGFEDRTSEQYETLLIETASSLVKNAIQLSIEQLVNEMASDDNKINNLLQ

With “His-tagged AKAP12 (purified, used for steric-exclusion chromatography) (from UniProt Q02952 1-1782) (natural protein)”, the stoichiometry N (in general, the number of molecules, sites or subunits per partner or assembly) in experiment [1] was found to be 4.

B1: GFP-tagged AKAP12 (natural protein, human, UniProt Q02952 1-1782, looked up)
chain: MGAGSSTEQRSPEQPPEGSSTPAEPEPSGGGPSAEAAPDTTADPAIAASDPATKLLQKNGQLSTINGVAEQDELSLQEGDLNGQKGALNGQGALNSQEEEEVIVTEVGQRDSEDVSKRDSDKEMATKSAVVHDITDDGQEETPEIIEQIPSSESNLEELTQPTESQANDIGFKKVFKFVGFKFTVKKDKTEKPDTVQLLTVKKDEGEGAAGAGDHKDPSLGAGEAASKESEPKQSTEKPEETLKREQSHAEISPPAESGQAVEECKEEGEEKQEKEPSKSAESPTSPVTSETGSTFKKFFTQGWAGWRKKTSFRKPKEDEVEASEKKKEQEPEKVDTEEDGKAEVASEKLTASEQAHPQEPAESAHEPRLSAEYEKVELPSEEQVSGSQGPSEEKPAPLATEVFDEKIEVHQEEVVAEVHVSTVEERTEEQKTEVEETAGSVPAEELVEMDAEPQEAEPAKELVKLKETCVSGEDPTQGADLSPDEKVLSKPPEGVVSEVEMLSSQERMKVQGSPLKKLFTSTGLKKLSGKKQKGKRGGGDEESGEHTQVPADSPDSQEEQKGESSASSPEEPEEITCLEKGLAEVQQDGEAEEGATSDGEKKREGVTPWASFKKMVTPKKRVRRPSESDKEDELDKVKSATLSSTESTASEMQEEMKGSVEEPKPEEPKRKVDTSVSWEALICVGSSKKRARRGSSSDEEGGPKAMGGDHQKADEAGKDKETGTDGILAGSQEHDPGQGSSSPEQAGSPTEGEGVSTWESFKRLVTPRKKSKSKLEEKSEDSIAGSGVEHSTPDTEPGKEESWVSIKKFIPGRRKKRPDGKQEQAPVEDAGPTGANEDDSDVPAVVPLSEYDAVEREKMEAQQAQKSAEQPEQKAATEVSKELSESQVHMMAAAVADGTRAATIIEERSPSWISASVTEPLEQVEAEAALLTEEVLEREVIAEEEPPTVTEPLPENREARGDTVVSEAELTPEAVTAAETAGPLGAEEGTEASAAEETTEMVSAVSQLTDSPDTTEEATPVQEVEGGVPDIEEQERRTQEVLQAVAEKVKEESQLPGTGGPEDVLQPVQRAEAERPEEQAEASGLKKETDVVLKVDAQEAKTEPFTQGKVVGQTTPESFEKAPQVTESIESSELVTTCQAETLAGVKSQEMVMEQAIPPDSVETPTDSETDGSTPVADFDAPGTTQKDEIVEIHEENEVASGTQSGGTEAEAVPAQKERPPAPSSFVFQEETKEQSKMEDTLEHTDKEVSVETVSILSKTEGTQEADQYADEKTKDVPFFEGLEGSIDTGITVSREKVTEVALKGEGTEEAECKKDDALELQSHAKSPPSPVEREMVVQVEREKTEAEPTHVNEEKLEHETAVTVSEEVSKQLLQTVNVPIIDGAKEVSSLEGSPPPCLGQEEAVCTKIQVQSSEASFTLTAAAEEEKVLGETANILETGETLEPAGAHLVLEEKSSEKNEDFAAHPGEDAVPTGPDCQAKSTPVIVSATTKKGLSSDLEGEKTTSLKWKSDEVDEQVACQEVKVSVAIEDLEPENGILELETKSSKLVQNIIQTAVDQFVRTEETATEMLTSELQTQAHVIKADSQDAGQETEKEGEEPQASAQDETPITSAKEESESTAVGQAHSDISKDMSEASEKTMTVEVEGSTVNDQQLEEVVLPSEEEGGGAGTKSVPEDDGHALLAERIEKSLVEPKEDEKGDDVDDPENQNSALADTDASGGLTKESPDTNGPKQKEKEDAQEVELQEGKVHSESDKAITPQAQEELQKQERESAKSELTES
notes: AKAP12 (gravin), human, full length; also called AKAP12-GFP; full-length AKAP12; source: A431 cells, stably expressing, in lysate
In the case of B1, the “fold increase of AKAP12 co-precipitated with AKAP5 after 30 min isoproterenol, over unstimulated cells” value in experiment [2] was 4 fold.
